Tested on: HEK293T
Test: median enrichment of reporter reads in eGFP-reduced (low/intermediate) vs eGFP-high sorted cells (eGFP-extension fusion abundance) (ratio); higher = stronger loss of eGFP-fusion protein abundance (more destabilising extension)
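Further: lentiviral eGFP-IRES-mCherry reporter pool sorted by FACS 96 h post-transduction, gated on mCherry-high cells, Illumina read counts normalized per million, median across four biological replicates.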

Row | Substance | median enrichment
1 | WDSSQFERQ [MYCBP] | 0.249
2 | WEAGWG [RPS6KB2] | 1.06
3 | WECRSAGRREE [CNPY1] | 7.46
4 | WEDPPEE [IGF1] | 1.04
5 | WEDRPAASWSREASVIAHTQFRFPPLYRQEVNLPGAEHPPKESPLNNTPPPRQECPNPNDPSFPNE [EDN3] | 0.582
6 | WEKN [C12orf65] | 0.333
7 | WEKQAKEKSVTVPL [KIDINS220] | 0.839
8 | WEKSYKCKECGKPLDDPQTLMNMRKFIL [ZNF141] | 11.7
9 | WELLFLGEGEEGKGPGSRGTRG [EPHB1] | 5.5
10 | WEMVGIRLRAASTQSQSKASLLMCEFTNSDGSSHILQMLSLPAG [ITSN2] | 19.2
11 | WEPTACRCRRMRGCRDARRRPRSQPTTPPPA [FOXL2] | 17.5
12 | WERPGGGAHWEGQDSVPALILPCPDVSCFAQRSFLSTPLIPRLVPREGWRPGHGPSRRGREGRRGRGRIEPIPAGEGEPSVHL [ASIC4] | 1.34
13 | WETA [FAXDC2] | 0.459
14 | WFC [HNRNPF] | 2.6
15 | WFFCFNKQQ [TMEM31] | 6.9
16 | WFIFKGLCVTLTFPVVTCDCFVFVEEYCFYFEKRVFFLSMGLQGWCTTGPSMYSCIDFFT [CD109] | 0.738
17 | WFSPVICSINGLIINVSLRHDKHFNTQ [DNAAF1] | 13.3
18 | WFST [SEMA3D] | 2.02
19 | WFYILTS [CLHC1] | 5.45
20 | WGAAYQSLGSHLLRC [C11orf91] | 5.76
21 | WGAPQEGPVDLRRLHKKLMDHWSVPMGSIISSTLKMSKVCSFQTASPGSLGNAGKSKRISLALIT [ACSM5] | 17.8
22 | WGATSFSTTMLLHFPTPTRPPSSPPTPFSHSHPHHRSLDCWEWKPGGVMAQVL [RAMP2] | 8.95
23 | WGC [PIGN] | 0.651
24 | WGCSGNSHSAPIRAPCRGPSVVSD [TBC1D14] | 2.19

Row | Substance | median enrichment
25 | WGEKPQKGKLQTSWETCAKDFAD [CXCL14] | 0.277
26 | WGEPQTLRES [C7orf61] | 0.458
27 | WGFRSAT [KIF15] | 1.06
28 | WGGLGCQCCRDPGCPGLWGRTGSPHPPTPAKGGASPESPPVRPSEPTSHPPSSQGVRAPDGPGRHPGGPATAGEGT [TMEM184A] | 2.58
29 | WGGLN [OR3A1] | 1.04
30 | WGGPNLDSFPALGHRRPGSSARQAWARRAPGRALSAAGARPRTSAGTRESLLGRSVNKPFFLLFFKNCFSH [DUOXA2] | 5.58
31 | WGGVGPGRAGVCWHRQPPLWALGGPLKGSPTRGPDESFLSGVGSQRGSPPAAWGRAWPGRVIQRVCQPLTGSPSVAATRSTEL [FAM53B] | 5.84
32 | WGHIQDNYTFAQPGIQMKVKMLEELVSRIDEQVHRHLDQHEVRYLQFAFRWMNNLLMREVPLRCTIRLWDTYQSEPDGFSHFH [TBC1D22A] | 11.6
33 | WGHQSPQWTDAFDGQDEGQGHWSEGVDKTAAI [TBC1D21] | 0.0629
34 | WGHRSEMRGLECGWAPGAMGGCGAGEIKSELLLPGVPTSSSGQSVHSQPDR [BCL2] | 5.52
35 | WGLRPHAPSHAVHPFSQVPNGPGSQDPGPSQNLCPPCP [SARDH] | 9.03
36 | WGMFVPGKAGGEPLQHLYIQEACREELVCWPQEEWELQTRSSDSLWPESNLVSPPASLF [FGF1] | 7.24
37 | WGNKRKLSPESATSAPSIFSINALYQPQSSLFKLTPC [ZNF474] | 8.63
38 | WGPAWHPVTPPQCLSWP [CSHL1] | 7.99
39 | WGPDSELEGGEIFKEKRGKWEGCKRGE [SOX2] | 29.7
40 | WGPGAFPRSSPSSI [RNASEK] | 0.405
41 | WGPGRGPGAVGT [INSYN1] | 5.06
42 | WGPGSLHASALAPAGSKHRACPPHPEDLRAMPVPPHAGGCLGHLPAH [RHPN1] | 3.51
43 | WGPPRARRTGTELSRGRSPRQAQLV [CDS2] | 11.7
44 | WGPVHAGGLRDPHNPQTQSPRALPKPLAWLQSRLRAGATYPCAGTCSLCSVLITPP [RUSC2] | 7.23
45 | WGQCLPAPPLASSSAPRVPSVDPIRPAMASYSKMV [ACO2] | 0.96
46 | WGRDSVPLAVLPSLLVCQASPPTTPHQATPAASAFLGAERQPRPPVPSPPSHHRSSAPGRTVWPLPVPAMGSGWTPWAPPIAK [CAPN1] | 7.5
47 | WGRRCGAVNFRPQRSQSMRGGGGGRGRRAKGGGAGASNPRQ [KISS1] | 15.8
48 | WGSAQISVVRKPVPLGFSPHTTACRTLEWTQSSH [CA6] | 7.98

Row | Substance | median enrichment
49 | WGSCSGGRV [ZNF330] | 0.598
50 | WGSEPRPSGFTCLVKAFVMISLN [KRTAP5-10] | 10.1
51 | WGSGFVSAAAYPCPMCPPLPVLRASGMVQALRKVRVAVWEPLCLAPGYPGPGNLRAGERWGGRHAEVLLVTGLPSLTCTYLHP [SLC36A1] | 4.72
52 | WGSVQGLSH [CST5] | 0.711
53 | WGTKPRRIPPQ [CA10] | 0.682
54 | WGWGWTNNQARAEGFMERPLGDPR [S1PR2] | 3.36
55 | WGWKGPEG [SLC35B2] | 1.98
56 | WGWRQLSSRSLGFAALAAVTRNCPGLGGELGGP [ACP7] | 8.55
57 | WGWTPVPAGRSPDMWTCSFVPTVHAGLRLEPRGAGQFTGSCRTRCQPLRGGTADARGFAHPGPSVPRAK [ITPKA] | 6.95
58 | WGYWPTLWAPCSA [EFCC1] | 7.99
59 | WHHLIDYGTRKSEGFHIR [PLPP6] | 7.61
60 | WHLFPPCLPLPLFWGHPFPPWLSPLKVSPPLGAFLEPCVSEWSPHSIVPRVCPQTLHLALLGRN [SNRPA] | 10.5
61 | WHLTNHSTEHTFIFVSAFVLKLSKYIHLCNRNL [ADGRV1] | 13.2
62 | WHPCTQEDSAFTKHFHCLAKV [GPR12] | 11.3
63 | WHRRTPGDFLYICRLRLFVTSKWDIV [TAF4] | 5.8
64 | WIEKI [GTF2A2] | 1.64
65 | WILAELLCT [COPS4] | 5.2
66 | WIPQGTTEAKELEVFSRGTDGLRALMMLPEVCKSFMS [LOR] | 10.9
67 | WKDN [PIK3CA] | 0.482
68 | WKGRAQQCK [IRX2] | 0.459
69 | WKHFLPKVSGLRYTSIQQCIVIKILFQS [OR2L3] | 7.3
70 | WKK [JAK2] | 0.476
71 | WKLRF [TRMT11] | 1.93
72 | WKLYMLRDVLLSGSIELPLSVNFKV [PDCD10] | 11

Row | Substance | median enrichment
73 | WKMKIP [N4BP2L2] | 1.67
74 | WKRD [RER1] | 0.349
75 | WKRLGRGSGRGLSPPEAGKESLFSHMIFRVLETHSCRSCRTLEFLGNCPAS [GPR83] | 13.9
76 | WKTCSLSILPMKIHFTHPPPLLFCHVFPSLCIARFEVTDTHPKPCCSQSPILHILMGK [SYNJ2BP] | 7.06
77 | WLEWIYDVPLRRSISATILI [HMGCLL1] | 12.2
78 | WLFCKSVLGGPSLRV [OR9A2] | 4.81
79 | WLHNPVYAFCTKKK [ZSCAN5A] | 8.24
80 | WLHW [RIMKLB] | 3.98
81 | WLLITLSHFLVMH [KRTAP22-2] | 13.9
82 | WLQNY [IFNAR2] | 10.5
83 | WLQPAKSILLFHFFHDGAV [CTSK] | 8.37
84 | WLQTC [RAB39A] | 5.31
85 | WLSF [KRT28] | 6.06
86 | WLSLRKGRRRGAQGHLLP | 28.3
87 | WLTAALAHSARGQDGGYLRPVLSCLFVFLIRDHVGLLRTRKAGKFPAGPSA [MKS1] | 10.7
88 | WLTLSLCCLLLS [SIRPB1] | 18.9
89 | WLVAIFQHSSCIL [LVRN] | 13.3
90 | WLVGLGSSARTSSPALAVVVQALQSAAGLFIKGIYICK [NRN1L] | 7.25
91 | WLVTEDEDNSITKLF [CD58] | 17.6
92 | WLYESFCHKVPKRRGMGRVPQHVVTA [DSN1] | 11
93 | WLYLRFEAGKPDR [UGT2B10] | 6.76
94 | WMLSRSWRFKKKCRMAV [OR52D1] | 23.1
95 | WMQLVCHSI [SERPINB4] | 10.7
96 | WMSMSEGKENFGHQNPAPSELKELIYFMKLILLCVCSWC [GALNT15] | 26.8

Row | Substance | median enrichment
97 | WMVLSAGSPLRSGQRKMGGCSSPPQHNDQPPS [NLRP12] | 13.1
98 | WNEKYCGHLNNGLVSYNEMFSRILK [UGP2] | 3.44
99 | WNEPWSPLQSSPWDRDVAGQNSQLCVCVFRLIGNSKSLLPAPSKLDGQWSGIETVV [IL18RAP] | 5.03
100 | WNFENKI [RNASEH2B] | 0.528
101 | WNHRSGRSRALSSCTVFIVPGTLFKDI [LIN7B] | 4.84
102 | WNLLSMILPATPLPSLAQSRGAMLSAHPSCTLAPCSRDVSTHSLC [MYPOP] | 7.81
103 | WNMKAEMQQTTSA [MNDA] | 0.66
104 | WNQS [CFHR1] | 0.596
105 | WNR [ZC3HAV1] | 0.487
106 | WNRIEQNRIE [PCSK5] | 0.778
107 | WPDLSERHGYHRMKVEL [CUTC] | 12
108 | WPEPLADITAGDEEPGLLLLLPVAPGVEVG [LIMD1] | 12
109 | WPFSWATLQSLPPFGR [ZNRD1] | 6.12
110 | WPG [KDM8] | 0.882
111 | WPGGGKHREREWPSGNPAGYPNPKGSYSQRHILVFVIILYQK [VPS26C] | 16.9
112 | WPHPAPPPPRPTRRPPDSSPGASSATPSLHPWGPSPPACTEQGLGVSWEA [ITGB4] | 1.34
113 | WPLDVGKPCGPPLITSSPRMTAEPQASGAGLMYPNLGQHDCRSIQSLPAPSMKGPPKTVLGTQCVAGSPPS [MINDY4] | 0.736
114 | WPLGRPPAQLPCPPPPSSSGFSVLGRLSWGRRWEGRDQLSSLAGKRGCGSQGGLQGTGMSGGHQAQRKRKQREFTGPPEKSQS [CRHR2] | 1.19
115 | WPLQQNSFVLCGAMPSLTPNRVSVILRTFYPQHL [CPNE3] | 16.4
116 | WPLSPHPHLHPRTSLAIGAGPLQTLIPTPTEPLAQVPLVLPHSLAARCPGAHPCRAPKDGEVGGQELLSPTFHAPPLCI [GIT1] | 3.23
117 | WPMLNTHV [NABP1] | 0.435
118 | WPPGTSLALLTHPRNTISGTRAAPRTRGYSRHNLIERAPAALTSTAFDTYASLVLLLSSESSCAHAFSRMGSPLAVAASVLAL [KIAA1522] | 8.47
119 | WPPPAPTRPRRALSIS [SLCO4A1] | 9.47
120 | WPPPASLSPHP [TTC24] | 0.329
